Results from PMC13087489.

Target: CsERF061 (Citrus sinensis? (blood orange), UniProt A0ACB8LNY5 1-312)
Assay: EMSA

B1: RE-mut-probe (dsDNA)
DNA 1: TGTCAAAAAAAAAAGCCACAAGGCAAATTCAAGTTG
DNA 2: CAACTTGAATTTGCCTTGTGGCTTTTTTTTTTGACA
binding result: no binding
